Patent CN115894698A (SHAANXI MYBIOTECH CO LTD, dated 2023)
One block for each binder: values may come before it.

How the values were obtained:
[1] = molecular target: T1, CHI3L1-6his(pcDNA3.1，在293T细胞中过表达的完整人CHI3L1) (human, UniProt P36222 22-383); experiment: CBA, immunofluorescence on acetone-fixed 293T cells overexpressing CHI3L1-6his
T1 construct: whole, on cells; CBA / immunofluorescence target: transfected, acetone-fixed 293T cells; also called 完整CHI3L1序列; 过表达CHI3L1蛋白的细胞; not shown: 6his tag

[2] = molecular target: T2, Q CHI3L1-329-346-6his(缺失329-346片段的CHI3L1构建体) (human, UniProt P36222 22-383); experiment: immunofluorescence on transfected, acetone-fixed 293T cells
T2 construct: Deletion construct, overexpressed in 293T cells from pcDNA3.1, acetone-fixed; not shown: 6his tag

[3] = molecular target: T1, CHI3L1-6his(pcDNA3.1，在293T细胞中过表达的完整人CHI3 …; experiment: as above

binding result [1]: binds
B1: 人CHI3L1单克隆抗体1D7(杂交瘤细胞1D7-C5-D5培养上清) (antibody, V domains shown)
VH: EVQLLETGGGLVQPGGSRGLSCEGSGFTFSGFWMSWVRQTPGKTLEWIGDINSDGSTINYAPSIKDRFTIFRDNDKSTLYLQMSNVRSEDTATYFCMRYKGAHWGQGTLVTVSA
VL: not shown
notes: Tested as culture supernatant; also called 1D7杂交瘤细胞上清; 阳性杂交瘤细胞上清

binding result [2]: no binding
binding result [3]: binds
B2: 重组单克隆抗体1D7(1D7m2a + 1D7mk，293T细胞上清) (antibody, V domains shown)
VH: B1 VH
VL: not shown
notes: VH cloned into pFUSE-CHIg-m2a (mouse IgG2a constant region of the vector), VL into pFUSE2ss-CLIg-mk (mouse kappa); Tested as 293T culture supernatant; also called 重组1D7单克隆抗体; 重组单克隆细胞上清
